In paper PMC6685058 (2019):

B1: AD-CEBP-1(aa 1–319) FL [C. elegans] / BD-IMA-3(aa 278–514) [C. elegans] (parent complex)
chain 1: MYSKLNYSHQKGDQALKHPHLVRLQQSEVRGFTDMPNNGASTSSAGSFARQDSLTIAASLQQRDRERHPVDFMETELDLGDYLQVLHDLDVPTDNVDFDDAELQKCNILYDGEHPYEQPELNGYERHVAYGTGYRVPGDYDQDGYKMNCEVKAETPDFGATKTRRAVKRPVPYDDYQKEYSEESSDMTDNDGSVDDSYFEPKSKKTKSAGLENFKPQTRARKYKLKADEEKAEPTYKLKRARNNDAVRKSRKKAKELQDKKEAEHDKMKRRIAELEGLLQSERDARRRDQDTLEQLLRNKGPMKEQRMPQRHILENFNK
chain 2: VVTHLVPLLGHVDVKVQTAALRAVGNIVTGTDEQTQLVLDSGVLRFMPGLLAHYKEKINKEAVWFVSNITAGNQQQVQDVFDAGIMPMIIHLLDRGDFPTQKEAAWAISNVTISGRPNQVEQMVKLGVLRPFCAMLSCTDSQIIQVVLDGINNILKMAGEAAEQVTSEIEECGGLDKIENLQNHENEDIYKLAFEIIDNFFSSDDETGNVEGAQSSAFGGDVPPVPDAPNGGWNFGK

Variants of: B1
Assay: yeast two-hybrid, β-galactosidase activity; parent: 110; read off a plot

Point of comparison: chain 1 MYSKLNYSHQKGDQALKHPHLVRLQQSEVRGFTDMPNNGASTSSAGSFARQDSLTIAASLQQRDRERHPVDFMETELDLGDYLQVLHDLDVPTDNVDFDDAELQKCNILYDGEHPYEQPELNGYERHVAYGTGYRVPGDYDQDGYKMNCEVKAETPDFGATKTRRAVKRPVPYDDYQKEYSEESSDMTDNDGSVDDSYFEPKSAATASAGLENFKPQTRARKYKLKADEEKAEPTYKLKRARNNDAVRKSRKKAKELQDKKEAEHDKMKRRIAELEGLLQSERDARRRDQDTLEQLLRNKGPMKEQRMPQRHILENFNK [chain 1 K204A, chain 1 K205A, chain 1 K207A], response ~110 Miller units. Against it:
- chain 1 MYSKLNYSHQKGDQALKHPHLVRLQQSEVRGFTDMPNNGASTSSAGSFARQDSLTIAASLQQRDRERHPVDFMETELDLGDYLQVLHDLDVPTDNVDFDDAELQKCNILYDGEHPYEQPELNGYERHVAYGTGYRVPGDYDQDGYKMNCEVKAETPDFGATKTRRAVKRPVPYDDYQKEYSEESSDMTDNDGSVDDSYFEPKSKKTKSAGLENFKPQTRARKYKLKADEEKAEPTYKLAAARNNDAVRKSRKKAKELQDKKEAEHDKMKRRIAELEGLLQSERDARRRDQDTLEQLLRNKGPMKEQRMPQRHILENFNK [chain 1 K239A, chain 1 R240A] — higher, ~190 Miller units
- chain 1 MYSKLNYSHQKGDQALKHPHLVRLQQSEVRGFTDMPNNGASTSSAGSFARQDSLTIAASLQQRDRERHPVDFMETELDLGDYLQVLHDLDVPTDNVDFDDAELQKCNILYDGEHPYEQPELNGYERHVAYGTGYRVPGDYDQDGYKMNCEVKAETPDFGATATARAVAAPVPYDDYQKEYSEESSDMTDNDGSVDDSYFEPKSKKTKSAGLENFKPQTRARKYKLKADEEKAEPTYKLKRARNNDAVRKSRKKAKELQDKKEAEHDKMKRRIAELEGLLQSERDARRRDQDTLEQLLRNKGPMKEQRMPQRHILENFNK [chain 1 K162A, chain 1 R164A, chain 1 K168A, chain 1 R169A] — lower, ~17 Miller units
